Assay results as given in patent US20210115146A1 (WUXI BIOLOGICS IRELAND, published 2021).
Where “and” joins values, the source holds several entries; their conditions need not be identical. Identical values can stand only once.

Legend:
[1] = biological target: T1, human EGFR (cell surface) (human, UniProt P00533 25-1210); experiment: cell-based or functional assay
[2] = biological target: T1, human EGFR (cell surface); experiment: FACS on cells carrying human EGFR
Procedure: (§1) The binding of antibodies to cell surface EGFR was assessed by FACS with EGFR transfected cells and A431 cell line, which over expresses human EGFR. 1×10⁵ cells/well were plated in a 96-well plate and centrifuged at 210 g for 5 minutes at 4° C. After removing the supernatant, the cell pellets were re-suspended with serial dilutions of testing purified antibodies in 1% BSA-PBS and incubated for 1 hour at 4° C., followed by incubation with FITC conjugated goat anti-human IgG (Jackson ImmunoResearch) at 4° C. for 1 hour. Two times of washing with 200 μl/well 1% BSA-PBS were applied between each step. Finally, the cells were resuspended in 100 μl 1% BSA-PBS for flow cytometry analysis (Intellicyt).

[3] = biological target: T2, mouse EGFR (cell surface) (mouse, UniProt Q01279 25-1210); experiment: FACS on cells expressing mouse EGFR
T2 construct: whole, on cells; also called W562-CHO-K1.mProl.F3 cells
Procedure: as §1

[4] = biological target: T3, Macaca fascicularis EGFR (cell surface) (Macaca fascicularis, UniProt A0A2K5WK39 25-1210); experiment: FACS on cells expressing monkey EGFR
T3 construct: whole, on cells; also called monkey EGFR; cyno EGFR
Procedure: as §1

[5] = biological target: T1, human EGFR (cell surface); experiment: FACS competition with EGF-biotin (50 ng/ml) on A431 cells
Procedure: EGFR-expressing A431 cells were routinely maintained in DMEM containing 10% FBS, 10 mM HEPES and L-glutamine. 10⁵ cells per well were added to each well of a 96-well plate and centrifuged at 210 g for 5 minutes at 4° C. before the supernatant was removed. Serial dilutions of test antibodies were added to the pelleted cells and incubated for 1 hour at 4° C. […] MFI of the cells was measured by flow cytometry and analyzed by FlowJo.

[6] = biological target: T1, human EGFR (cell surface); experiment: FACS affinity on transfected cells, quantitative beads
Procedure: (§2) Human, cyno, mouse EGFR and human EGFRvIII transfected cells were transferred in to 96-well U-bottom plates (BD) at a density of 5×10⁴ cells/well, respectively. Testing antibodies were 1:3.16-fold serially diluted in 1% BSA-PBS and incubated with the cells at 4° C. for 1 hr. The secondary antibody, Alexa647 conjugated goat anti-human IgG Fc (Jackson Immunoresearch Lab), was added to resuspended cells and incubated at 4° C. in the dark for 1 hr. The cells were then washed once and resuspended in PBS with 1% BSA, and analyzed by flow cytometery (BD). Fluorescence intensity was converted to bound molecules/cell based on the quantitative beads (Quantum™ MESF Kits, Bangs Laboratories). KD was calculated using Graphpad Prism5.

[7] = biological target: T3, Macaca fascicularis EGFR (cell surface); experiment: as above
Procedure: as §2

[8] = biological target: T2, mouse EGFR (cell surface); experiment: as above
Procedure: as §2

[9] = biological target: T4, human EGFRvIII (cell surface) (human, UniProt P00533 25-1210); experiment: as above
T4 construct: whole, on cells; also called hEGFRIII; EGFR variant III
Procedure: as §2

[10] = biological target: T5, human EGFR ECD protein (W562-hPro1.ECD.his) (human, UniProt P00533 25-645); experiment: SPR (ProteOn XPR36), antibody captured by anti-human IgG Fc, EGFR ECD.his as analyte
T5 construct: extracellular domain; Made in HEK293 cells
Procedure: Each antibody was captured on an anti-human IgG Fc antibody immobilized GLM sensor chip (Bio-Rad). W562-hPro1.ECD.his at different concentrations was injected over the sensor chip at a flow rate of 100 uL/min for an association phase of 240 s, followed by 1800 s dissociation. The chip was regenerated by 10 mM glycine (pH 1.5) after each binding cycle. The sensorgrams of blank surface and buffer channel were subtracted from the test sensorgrams. The experimental data was fitted by 1:1 binding model using Langmiur analysis. Molecular weight of 85 kDa was used to calculate the molar concentration of analyte.

[11] = biological target: T1, human EGFR (cell surface); experiment: FACS binding to A431 cells (printed 'A432' in paragraph 253) after 0, 1, 4, 7 and 14 days in human serum at 37 C; lower panel
Procedure: Freshly collected human blood was incubated in polystyrene tubes without anticoagulant for 30 minutes at room temperature. The Serum was collected after centrifugation the blood at 4000 rpm for 10 minutes. Repeat the centrifugation until the serum was clarifying. Gently mix antibodies with serum and ensure the serum content >95%. The mix aliquots were incubated at 37° C. for 0 day, 1 day, 4 days, 7 days and 14 days, respectively. At the indicated time point the samples were quickly-frozen in liquid nitrogen and stored at −80° C. until analysis. The cell bindings of the serial dilutions of the antibody samples to A432 cells were analyzed by FACS. Four-parameter non-linear regression analysis was used to obtain EC₅₀ values for cell binding using GraphPad Prism 5 software (GraphPad Software, La Jolla, Calif.).

IC50 of inhibition of EGFR phosphorylation (pEGFR sandwich ELISA, A431 cells stimulated with EGF) [1]: 10.4 nM and 22.6 nM
EC50 [2]: 0.99 nM
EC50 [3]: 1.06 nM
EC50 [4]: 0.58 nM
IC50 [5]: 2.58 nM
Bmax [6]: 920 pM
Kd [6]: 1.4 nM
Bmax [7]: 230 pM
Kd [7]: 0.23 nM
Bmax [8]: 890 pM
Kd [8]: 0.54 nM
Bmax [9]: 590 pM
Kd [9]: 0.32 nM
Kd [10]: 0.162 nM
koff [10]: 0.000105 s⁻¹
kon [10]: 646000 M⁻¹ s⁻¹
EC50 (read off the curve) [11]: ~0.8 nM
B1: W5626-2C10-z5 (humanized VHH of W5626-2C10 further comprising a human Fc of IgG1 isotype) (Fc fusion)
chain: AVQLVESGGGLVQPGGSLTLSCAASGRTFSSYAMGWFRQAPGKEREFVAADRWSGGNTRYADSVKGRFTISRDNAKNTLYLQMNSLRAEDTAVYYCAATYLSSDYEWGVPPKAYDYDYWGQGTLVTVSS
notes: Bivalent humanized VHH linked with human IgG1 Fc region; not shown: human IgG1 Fc region from a modified pcDNA3.3 vector
EC50 of EGFR internalization (Fab-ZAP, viability of A431 cells) [1]: 0.21 nM
